The target in data set [1] is T1, EBOV sGP (Zaire ebolavirus (EBOV), UniProt P60170). In words: filter binding. The following applies: protein: recombinant; tags: C-terminal thrombin site + 6xHis; chain copies: 2; label: 5' 32P.
The target in the next data set is NGAL (human, UniProt P80188 21-198). As to the kind of experiment: filter binding; with or without 10 mM DTT, no effect; NBB buffer. The note with it: protein: recombinant; label: 32P.
Data set [2] addresses T2, SUDV sGP (Sudan virus (SUDV), UniProt Q7T9E0 33-324).
T2 sequence: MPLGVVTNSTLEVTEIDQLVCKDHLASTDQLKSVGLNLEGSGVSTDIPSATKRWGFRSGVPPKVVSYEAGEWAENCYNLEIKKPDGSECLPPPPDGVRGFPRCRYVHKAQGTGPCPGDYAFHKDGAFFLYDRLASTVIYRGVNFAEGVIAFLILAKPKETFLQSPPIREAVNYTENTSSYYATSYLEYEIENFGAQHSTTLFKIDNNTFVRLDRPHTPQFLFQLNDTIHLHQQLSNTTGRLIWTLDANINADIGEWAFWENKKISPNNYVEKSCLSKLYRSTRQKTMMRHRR
In words: filter binding. The note with it: protein: commercial; chain copies: 2; label: 5' 32P.

Another data set deals with T3, His-Lcn2 (mouse, UniProt P11672 21-200).
T3 sequence: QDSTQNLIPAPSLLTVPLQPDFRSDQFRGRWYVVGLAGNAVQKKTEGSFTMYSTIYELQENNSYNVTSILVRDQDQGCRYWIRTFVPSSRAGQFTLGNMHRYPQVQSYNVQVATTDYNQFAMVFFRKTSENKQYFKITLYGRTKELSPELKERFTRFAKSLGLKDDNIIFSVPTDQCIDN
As to the kind of experiment: filter binding; Nitrocellulose filter capture in PBS at 23-24 C (NA53 in NBB); EIS sensor in PBS with or without 10% serum. The note with it: protein: recombinant; tags: His; label: 5' 32P.

Data set [3] concerns the target T2, SUDV sGP. As to the kind of experiment: electrochemical impedance (NAAO sensor); PBS; same affinity as EBOV sGP. The following applies: protein: commercial; chain copies: 2.
Data set [4] addresses T1, EBOV sGP. As to the kind of experiment: electrochemical impedance (NAAO sensor); 10% human serum. The note with it: protein: recombinant; tags: C-terminal thrombin site + 6xHis; chain copies: 2.

B1: 70SGP2A (ssDNA)
DNA: GCCTGTTGTGAGCCTCCTGTCGAACAACCACTCATATCTACTACATGACTTGCTCCATTCTGTTCTTTCT
With B1, the Kd with EBOV sGP [1] stood at 27 ± 15 nM.

B2: 6022 (ssDNA)
DNA: GCCTGTTGTGAGCCTCCTGTCGAACCCTATCTTGTTCATGCTATTCTCAATATTTTCGGTTCACTTACCGTCTGCCTTTGAGCGTTTATTCTTGTCTCCC
Consider B2, for which the Kd in the data set with EBOV sGP [1] was around 23 nM.

B3: NA53 (ssDNA)
DNA: AGCAGCACAGAGGTCAGATGCCGTGCGGATGTACAGGGACTTGGATAGTTTCTGACCTATGCGTGCTACCGTGAA
On to B3, for which the binding result with NGAL was “binds”.

B4: 6012 (ssDNA)
DNA: GCCTGTTGTGAGCCTCCTGTCGAACGTATTTCTTGCTTCCTTCCTTGCCGCGCACATTGCAGTATAAGTACCTGTCGTTGAGCGTTTATTCTTGTCTCCC
For the molecule B4, the dissociation constant Kd was found to be 27 ± 12 nM in the data set with EBOV sGP [1] and 151 ± 44 nM with SUDV sGP [2].

B5: 6020 (ssDNA)
DNA: GCCTGTTGTGAGCCTCCTGTCGAACATACCGTTCCACCCACATTTCAACCTTCATCCATCCTATTATTAGCCCACTCTTGAGCGTTTATTCTTGTCTCCC
For B5, the binding result with EBOV sGP [1] is listed as “no binding”.

B6: 6011 (ssDNA)
DNA: GCCTGTTGTGAGCCTCCTGTCGAACAACCACTCATATCTACTACATGACTTGCTCCATTCTGTTCTTTCTCTACGCATTGAGCGTTTATTCTTGTCTCCC
For B6, the binding result in the data set with His-Lcn2 is on record as “no binding”. Also, the Kd worked out at 8.5 ± 3.2 nM in the data set with EBOV sGP [1] and 165 ± 44 nM in the data set with SUDV sGP [2].

B7: 5'thio-6011 (ssDNA)
DNA: B6 DNA
modifications: 5' thiol
For the molecule B7, the binding result in the data set with SUDV sGP [3] is on record as “binds”. The Kd in the data set with EBOV sGP [4] turned out to be 2.2 ± 0.75 nM.
